Data: US12018068B2, “Anti-O1 antibodies and uses thereof” (priority 2016, dated 2024)

B1: 54H7: mouse hybridoma anti-O1 antigen antibody (Ms IgG3), VH SEQ ID NO:47, VL SEQ ID NO:48 (antibody, V domains shown)
VH: QVHLQQPGSELVRPGASVTLSCKASGYTFTNYWMQWVKQRPGQGLEWIGNIYPGSGNTNYDEKFRSKATLTVDTSSSTAYMHLTSLTSEDSAVYYCTRNWNFDYWGQGTTLTVSS
VL: DIQMTQSPSSLSASLGERVSLTCRASQDIGSSLNWLQQEPDGTIKRLIYATSSLDSGVPKRFSGSRSGSEYSLTISSLEAEDFVDYYCLQHTDSPYTFGGGTKLELK
modifications: 54H7 VH; 54H7 VL Amino Acid Sequence
B2: KPE33: human anti-K. pneumoniae O1 antigen antibody, VH SEQ ID NO:8, VL SEQ ID NO:9, isolated as IgG2 from donor #262 (antibody, V domains shown)
VH: EVQLVESGGALVQPGGSLRLSCAVSGFIFDDYAIHWVRRAPGKGLEWVSGIAWKSGATNYADSVKGRFAISRDNSKKSMYLQMNSLGTEDTALYYCTRRRASGDDTFYYFDYWGQGTLVTVSS
VL: EIVLTQSPATLSLSPGERATLSCRASQNVNTNLAWYQQRPGQSPRLLIYDASTRAAGLPARFSGSGSGTDFTLTISSLEPEDFAVYYCQQCTNWRYTFGQGTKLEIK
modifications: KPE33 VH Amino Acid Sequence; KPE33 VL Amino Acid Sequence

Legend:
Kp8045 Klebsiella = test: pneumonia model, 54H7 synergy with meropenem; format: in vivo, Klebsiella pneumoniae; settings: antibody 1 mpk at 1 hour, meropenem 1.5 mpk at 4 hour post challenge
Protocol: The synergy of anti-O1 antigen antibodies and antibiotic was also assessed in the pneumonia mouse models. C57BL/6 mice were inoculated intranasally with 1e4 to 1e8 CFU of Kp8045 Klebsiella. Both sub-therapeutic dosage of antibodies (1 mpk) and meropenem antibiotic (1.5 mpk) were administered at 1 hour or 4 hour post bacterial challenge, respectively. Mouse survival was monitored daily until up to day 8.

purified O1 LPS = test: Fortebio Octet competitive binding on O1 LPS; parameters: species or system Klebsiella pneumoniae; settings: 10 μg/mL, probe pre-bound with KPE33
Protocol: Briefly, after initial binding with 10 μg/mL KPE33, the probe was incubated with antibody mixtures containing 10 μg/mL KPE33 with equal concentrations of 54H7, KPE33, or the control antibody R347.

O1 LPS = test: Octet binding affinity to O1 LPS; parameters: species or system Klebsiella pneumoniae; settings: average, from on-rate and off-rate, read-out: affinity constant (KD) to O1 LPS
Excerpt: In order to reduce potential sequence liabilities for antibody development including potential immunogenicity due to anti-drug antibodies, an unpaired Cysteine in the light chain CDR3 of KPE33 was exchanged with Threonine (T), and somatic mutations in the frameworks 1, 2, and 4 of KPE33 were replaced with germ line residues (as summarized in FIG. 5). CDRs were maintained as wildtype, except for the C107T substitution described above. The optimized KPE33 was named KPE33v2016. […] This platform provides a powerful tool to measure the rate of biomolecular complex formation and complex stability in a more biologically meaningful setting. Briefly, Protein A coated sensors were coated with 2 μg/mL O1 LPS for 10 minutes before being dipped into solution containing 0.2 μg/mL anti-O1 LPS mAbs in Kinetics buffer (ForteBio, dilute 10× to 1× with PBS). Changes in the number of molecules bound to the biosensor caused a shift in the interference pattern that was recorded in real time. […] The affinity constant (KD) of KPE33 and KPE33v2016 to O1 LPS was calculated based on the on-rate and off-rate from Octet sensorgram.
KPE33v2016 was further optimized, thereby creating two new variants—KPE33 H32+L2016(1EQ) and KPE33 H33+L2016(1EQ). Both of these variants contain a Methionine to Isoleucine mutation adjacent to CDRH1, a Tryptophan to Tyrosine mutation in CDRH2, an Aspartate to Glutamate mutation adjacent to CDRH2, Asparagine to Glutamine and Methionine to Leucine mutations in FRH3 and an Aspartate to Asparagine mutation in CDRH3. In addition, KPE33 H32+L2016(1EQ) had four FRH3 residues changed to the germ-line residues, whereas KPE33 H33+L2016(1EQ) only has three of the same FRH3 residues changed to the germ-line. Both of these variants contain the same light chain as KPE33v2016, but with a single Glutamate to Glutamine mutation in residue 1.

ESBL strain Kp8561 (O1) = test: lethal bacteremia model, survival; format: in vivo, Klebsiella pneumoniae; settings: C57BL/6 mice, 1.5, 5, 15 mg/kg one hour post challenge
Protocol: In a bacteremia model, C57BL/6 mice were inoculated intraperitoneally with 1e8 CFU extended spectrum beta lactamase (ESBL) clinical isolate strain Kp8561 (O1). Anti-K. pneumoniae monoclonal antibody KPE33 at 1.5, 5, and 15 mg/kg and human IgG1 control antibody at 45 mg/kg were given one hour post bacterial challenge (therapeutic dosing). Mouse survival was monitored daily until up to day 8.

[1] = system: Klebsiella pneumoniae of the LPS-O1 serotype; test: primary screening, binding to whole bacteria
Excerpt: KPA27 and KPE33 were isolated from the peripheral blood of two different immune donors: #487 and #262, respectively. […] KPA27 and KPE33 were isolated from immune donors as IgG2 antibodies.
KPB202 and KPJ4 were isolated from tonsillar B cells of two different donors: T6 (KPB202) and T8 (KPJ4). […] KPB202 and KPJ4 were isolated from donors as IgG1 and IgG2 antibodies, respectively.

| Molecule | survival, combination with meropenem, pneumonia Kp8045 (Kp8045 Klebsiella) | additional binding after initial binding of KPE33 (purified O1 LPS) | Kd (O1 LPS) [nM] | survival, lethal bacteremia Kp8561 (ESBL strain Kp8561 (O1)) | binding to bacteria in primary screening [1] |
| --- | --- | --- | --- | --- | --- |
| B1 | significant synergy and better protection than monotherapy | able to show additional binding | – | – | – |
| B2 | – | – | 5.83 | protect mice from extended spectrum beta-lactamase (ESBL) strain Kp8561 | bind to Klebsiella pneumoniae of the LPS-O1 serotype |
